The values below come from the nanobody polyreactivity screen of Harvey et al. (2022).

The data set can be described thus: yeast display, Sf9 membrane polyspecificity reagent, FACS + sequencing; frameworks hold sequencing errors. Put shortly:
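Nanobodies came from a synthetic yeast display library in Saccharomyces cerevisiae BJ5465, induced with galactose for 36–48 hours and stained for 1 hour at 4 °C with 10% biotinylated, detergent-solubilized Sf9 membrane reagent. Cells were enriched on streptavidin microbeads and then FACS-sorted, with low and high (top ~1%) gates set on anti-HA fluorescence for expression and streptavidin fluorescence for reagent binding. Each polyreactivity label reflects the gate a clone came from. Genes were amplified by colony PCR, sequenced by MiSeq 2 × 250 and filtered by CDR length.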
As to “QVQLVESGGGLVQAGGSLRLSCAASGSIFGVNAMGWYRQAPGKERELVAAISNSGVRKYYADSVKGRFTISRDNAKNTVYLQMNSLKPEDTAVYYCARTYQVGDSIDDYWGQGTQVTVSP”, the “polyreactivity (PSR sort gate)” value is “low polyreactivity”.

Regarding “QVQLVESGGGLVQAGGSLRLSCAASGSIFGVYVMGWYRQAPGKERELVAAITRGASTNYADSVKGRFTISRDNAKNTVYLQMNSLKPEDTAVYYCAARQVSVSGHQYGYWGQGTQVTVSS”, the “polyreactivity (PSR sort gate)” value is given as “low polyreactivity”.

Take “QVQLVESGGGLVQAGGSLRLSCAASGSIFGWNAMGWYRQAPGKERELVAAISSGGSTYYADSVKGRFTISRDNAKNTVSLQMNSLKPEDTAVYYCNAYFQYYDYWGQGTQVTVSS”: the “polyreactivity (PSR sort gate)” value is given as “low polyreactivity”.

In the case of “QVQLVESGGGLVQAGGSLRLSCAASGSIFGWNAMGWYRQAPGKERELVASITWSGGRTYYADSVKGRFTISRDNAKNTVYLQMNSLKPEDTAVYYCAARGYTVWDDYWGQGTQVTVSS”, the “polyreactivity (PSR sort gate)” value was “high polyreactivity”.

As to “QVQLVESGGGLVQAGGSLRLSCAASGSIFGWNTMGWYRQAPGKERELVASISRRGGSTHYADSVKGRFTISRDNAKNTVYLQMNSLKPEDTAVYYCAKVRYQGNGGYYWGQGTQVTVSS”, the “polyreactivity (PSR sort gate)” value is on record as “high polyreactivity”.

Regarding “QVQLVESGGGLVQAGGSLRLSCAASGSIFGWYAMGLYRQAPGKERELVAAITFSSVSTYYADSVKGRFTISRDNAKNTVYLQMNSLKPEVTAVYYCGAVVYYTFDYWVQGTQVTVSS”, the “polyreactivity (PSR sort gate)” value was “low polyreactivity”.

Consider “QVQLVESGGGLVQAGGSLRLSCAASGSIFGWYAMGWYRQAPGKERELVADISYIGVSTYYADSVKGRFTISRDNAKNTVYLQMNTLKPEDTAVYYCATYYLLYPIPYGYPRSPEYEYWGQGTQVTVSS”, for which the “polyreactivity (PSR sort gate)” value was “low polyreactivity”.

For “QVQLVESGGGLVQAGGSLRLSCAASGSIFGWYAMGWYRQAPGKERELVASIRKSGGSTYYADSVKGRFTISRDNAKNTVYLQMNSLKPEDTAVYYCAAERYKNGAGQRKYAYDYWGQGTQVTVSS”, the “polyreactivity (PSR sort gate)” value is recorded as “high polyreactivity”.

Regarding “QVQLVESGGGLVQAGGSLRLSCAASGSIFGWYAMRSYRQAPGKATELVASISGSGGSTYYADSVKGRFTISRDNAKNTVYLQMNSLKPEDTAVYYCAADYALSSLPFDYWGQGTQVTVSS”, the “polyreactivity (PSR sort gate)” value is listed as “high polyreactivity”.

As to “QVQLVESGGGLVQAGGSLRLSCAASGSIFGYAMGWYRQAPGKERELVAAISFSGVSTYYADSVKGRFTISRDNAKNTVYLQMNSLKPDDTAVYYCATDRFYYRTGYDPYYYWGQGTQVTVSS”, the “polyreactivity (PSR sort gate)” value is reported as “low polyreactivity”.

With “QVQLVESGGGLVQAGGSLRLSCAASGSIFGYNAMGWYRQAPATERELVATIRNGGITNYADSVKGRFTISRDNAKNTVYLQMNSLKPEDTAVYYCAADVVQYLYYFRLDYWGQGTQVTVSS”, the “polyreactivity (PSR sort gate)” value is “low polyreactivity”.

Turning to “QVQLVESGGGLVQAGGSLRLSCAASGSIFGYNAMGWYRQAPGKEREFVAAISWSGGRTYYADSVKGRFTISRDNAKNTVYLQMNSLKPEDTAVYYCAAPSRPAPRFDYWGQGTQVTVSS”, the “polyreactivity (PSR sort gate)” value is recorded as “low polyreactivity”.

In the case of “QVQLVESGGGLVQAGGSLRLSCAASGSIFGYNAMGWYRQAPGKERELVAAISYSGGSTYYADSVKWRFTISRDNAKNTVYLQMNSLKPEDTAVYYCNKYIRRYLIYGSWGQGTQVTVSS”, the “polyreactivity (PSR sort gate)” value is “high polyreactivity”.

Regarding “QVQLVESGGGLVQAGGSLRLSCAASGSIFGYNAMGWYRQAPGKERELVAVITRSDGSTYYADSVKGRFTISRDNAKNTVYLQMNSLKPEDTAVYYCNAETHVYYWGVVIYEYNYWGQGTQVTVSS”, the “polyreactivity (PSR sort gate)” value is given as “low polyreactivity”.

In the case of “QVQLVESGGGLVQAGGSLRLSCAASGSIFGYNTMGWYIQAPGKERELVATITRGGSTHYADSVKGRFTISRDNAKNTVYLQMNSLKPEDTAVYYCAATRLSYVRLYRFSQQYYYWGQGTQVTVSS”, the “polyreactivity (PSR sort gate)” value is “high polyreactivity”.

As to “QVQLVESGGGLVQAGGSLRLSCAASGSIFGYYAMGWYRQAPGKEREFVAAISWSGGRTTYADSVKGRFTISRDNAKNTVYLQMNSLKPEDTAVYYCAAAARRKFYYWGQGTQVTVSS”, the “polyreactivity (PSR sort gate)” value is “high polyreactivity”.

For the sequence “QVQLVESGGGLVQAGGSLRLSCAASGSIFGYYAMGWYRQAPGKERELVAAISSGDSTYADSVKGRFTISRDNAKNTVYLQMNSLKPEDTAVYYCAADEYYTFSSFELRRMDYWGQGTQVTVSS”, the “polyreactivity (PSR sort gate)” value was “low polyreactivity”.

As to “QVQLVESGGGLVQAGGSLRLSCAASGSIFGYYAMGWYRQAPGKERELVAAISSGGNTNYADSVKGRFTISRDNAKNTVYLQMNSLKPEDTAVYYCATRARYKRIRYDYWGQGTQVTVSS”, the “polyreactivity (PSR sort gate)” value is “high polyreactivity”.

Take “QVQLVESGGGLVQAGGSLRLSCAASGSIFGYYAMGWYRQAPGKERELVAAISVRGGSTYYADSVKGRFTISRDNAKNTVYLQMNSLKPEDTAVYYCAARISYSLSYWGQGTQVTVSS”: the “polyreactivity (PSR sort gate)” value was “high polyreactivity”.

Regarding “QVQLVESGGGLVQAGGSLRLSCAASGSIFGYYAMGWYRQAPGKERELVARISYSGGTTYYADSVKGRFTISRDNAKNTVYLQMNSLKPEATAVYYCNARIPYSWRYGYWGQGTQVTVSS”, the “polyreactivity (PSR sort gate)” value is reported as “high polyreactivity”.

Consider “QVQLVESGGGLVQAGGSLRLSCAASGSIFGYYAMGWYRQAPGKERELVASISGSGGTTYFADSVKGRFTISRDNAKNTVYLQMNSLKPEDTAVYYCAARRSIYGYPFVTSRRGYWGQGTQVTVSS”, for which the “polyreactivity (PSR sort gate)” value was “high polyreactivity”.

As to “QVQLVESGGGLVQAGGSLRLSCAASGSIFGYYDMGWYRQAPGKERELVAAISYRGSSTYYADSVKGRFTISRDNAKNTVYLQMNSLKPEDTAVYYCASRYYYSYPPQEDDYWGQGTQVTVSS”, the “polyreactivity (PSR sort gate)” value is on record as “high polyreactivity”.

For “QVQLVESGGGLVQAGGSLRLSCAASGSIFGYYTMGWYRQAPGKERELVAAITSGGSTNYADSVKGRFTISRDNAKNTVYLQMNSLKPEDTAVYYCAKVSYYPWRYDYWGQGTQVTVSS”, the “polyreactivity (PSR sort gate)” value is “low polyreactivity”.

Take “QVQLVESGGGLVQAGGSLRLSCAASGSIFGYYTMGWYRQAPGKERELVAGIDFITTSTYYADSVKGRFTISRDNAKNTVYLQMNSLKPEDTAVYYCNADPFTGYDYWGQGTQVTVSS”: the “polyreactivity (PSR sort gate)” value is reported as “low polyreactivity”.

“QVQLVESGGGLVQAGGSLRLSCAASGSIFGYYTMGWYRQAPGKERELVAGITSTGNTNYADSVKGRFTISRDNAKNTVYLQMNSLKPEDTAVYYCAADSESTWDYGWELEVGYDYWGQGTQVTVSS”: the “polyreactivity (PSR sort gate)” value is “low polyreactivity”.

With “QVQLVESGGGLVQAGGSLRLSCAASGSIFGYYTMGWYRQAPGKERELVATITSGGSTYYADSVKGRFTISRDNAKNTVYLQMNSLKPEDTAVYYCNADWYWRVYWGQGTQVTVSS”, the “polyreactivity (PSR sort gate)” value is “high polyreactivity”.

In the case of “QVQLVESGGGLVQAGGSLRLSCAASGSIFHGYAMGWYRQAPGKERELVAAISYTGGRTYYADSVKGRFTISRDNAKNTVYLQMNSLKPEDTAVYYCADDSQLTKFYYWGQGTQVTVSS”, the “polyreactivity (PSR sort gate)” value was “high polyreactivity”.

“QVQLVESGGGLVQAGGSLRLSCAASGSIFHGYAMGWYRRAPGKERELVAAITYSGGRTYYADSVKGRFTISRDNAKNTVYLQMNSLKPEDTAVYYCAALTRRVKKYDYWGQGTQVTVSS”: the “polyreactivity (PSR sort gate)” value was “high polyreactivity”.

As for “QVQLVESGGGLVQAGGSLRLSCAASGSIFHHNAMGWYRQAPGKERELVAAISSRSGNTYYADSVKGRFTISRDNAKNTVYLQMNSLKPEDTAVYYCAAGKRLSYSTYDSWGQGTQVTVSS”, the “polyreactivity (PSR sort gate)” value is recorded as “high polyreactivity”.

Regarding “QVQLVESGGGLVQAGGSLRLSCAASGSIFHINAMGWYRQAPGKERELVADISQRGGSTYYADSVKGRVTISRDNAKNTVYLQMNSLKPEDTAVYYCAVVHVFYAVSYFSFYTYEYWGQGTQVTVSS”, the “polyreactivity (PSR sort gate)” value was “low polyreactivity”.

“QVQLVESGGGLVQAGGSLRLSCAASGSIFHIYMGWYRQSPGKERELVASNSYRGGTTYYADSVKGRFTISRDNAKNTVYLQMNSLKPEDTAVYDCNVDRYFYHYGRYGHMDYWGQGTQVTVSS”: the “polyreactivity (PSR sort gate)” value is given as “low polyreactivity”.

Take “QVQLVESGGGLVQAGGSLRLSCAASGSIFHLYLGWYRQAPRKERELVAVIKSSGDSTYYADSVKGRFTISRDNAKNTVYLQMNSMKPEDTAVYYCNARRRGPRYRYCYWGQGTQVTVSS”: the “polyreactivity (PSR sort gate)” value was “high polyreactivity”.

“QVQLVESGGGLVQAGGSLRLSCAASGSIFHMNAMGWYRQAPGKERELDASISSDGSTYYADSVKGRFTISRDNAKNTVYLQMNSLKPEVTAVYYCNADSQWALKQLSFDYWGQGTQVTVSS”: the “polyreactivity (PSR sort gate)” value is “low polyreactivity”.

Consider “QVQLVESGGGLVQAGGSLRLSCAASGSIFHPNAMGWYRQAPGKERELVAAITKSGGSTYYADSVKGRFTISRDNAKNTVYLQMNSLKPEDTAVYYCAKVSRATVTYDYWGQGTQVTVSS”, for which the “polyreactivity (PSR sort gate)” value is recorded as “high polyreactivity”.

Turning to “QVQLVESGGGLVQAGGSLRLSCAASGSIFHRYAMGWYRQAPGKEREFVAAISGRGGSTYYADSVKGRFTISRDNAKNSVYLQMNSLKPEDTAVYYCAADSSRFYGRPRYYYWGQGTQVTVSS”, the “polyreactivity (PSR sort gate)” value is reported as “high polyreactivity”.

As to “QVQLVESGGGLVQAGGSLRLSCAASGSIFHTYVMGWYRQAPGKERELVASITRSGGSTYYADSVKGRFTISRDNAMNTVYLQMNSLKPEDTAVYYCAATYRTANHRYYYWGQGTQVTVSS”, the “polyreactivity (PSR sort gate)” value is “high polyreactivity”.

Regarding “QVQLVESGGGLVQAGGSLRLSCAASGSIFHVYGMGWYRQAPGKEREFVADITSRGTRTYYADSVKGRFTISRDNAKNTVYLQMNSLKPEDTAVYYCNTLVGVDFWLVDYWGQVTQVTVSS”, the “polyreactivity (PSR sort gate)” value is listed as “low polyreactivity”.

As for “QVQLVESGGGLVQAGGSLRLSCAASGSIFHWYAMGWYRQAPGKERELVAAISWSGGSTYYADSVKGRFTISRDNAKNTVYLQRNSLKPEDTAVYYCNKYIRYPFKRYGYWGQGTQVTVSS”, the “polyreactivity (PSR sort gate)” value is recorded as “high polyreactivity”.

Turning to “QVQLVESGGGLVQAGGSLRLSCAASGSIFHYNAMGWYRQAPGKERELVAAITTSGGSTYYADSVKGRFTISRDNAKNTVYLQMNSLKPEDTAVYYCAADLVWTRYFGYAPDYYIEFDYWGQGTQVTVSS”, the “polyreactivity (PSR sort gate)” value is “high polyreactivity”.

As for “QVQLVESGGGLVQAGGSLRLSCAASGSIFHYYAMGWYRQAPGKERELVAAISWSGGRTYYADSVKGRFTISRDNAKNTVYLQMNSLKPEDTAVYYCAADYDGSFNTPYLLDPYDYWGQGTQVTVSS”, the “polyreactivity (PSR sort gate)” value is “high polyreactivity”.

As for “QVQLVESGGGLVQAGGSLRLSCAASGSIFIAYGMGWYRQEPGKERELVAAITVSGGNTYYADSVKGRFTISRDNAKNTVYLQMYSLKPEDTAVYYCADVTYWQDGHRGNYWGQGTQVTVSS”, the “polyreactivity (PSR sort gate)” value is “low polyreactivity”.
